Assay results: US20160096892A1 (Novartis, published 2016)

Biological target: T1, recombinant Fc-tagged hsCD33 (human, UniProt P20138 18-259)
T1 construct: Soluble staining reagent, detected with a PE-conjugated Fc-specific secondary antibody; not shown: Fc tag
Test: flow cytometry; JNL cells displaying the scFv CAR, recombinant Fc-tagged hsCD33, PE anti-Fc secondary
Protocol: FIG. 32 is an image depicting cross-reactivity of T cells expressing scFvs targeting CD33 to cynomolgus CD33 (cyCD33) by flow cytometry. JNL cells transduced with a lentiviral vector expressing scFv's raised against hsCD33 were incubated with either recombinant Fc-tagged hsCD33 (dotted line) or cyCD33 (solid line) followed by incubation with an Fc-specific secondary antibody conjugated to phycoerythrin.
Finally, scFv cross-reactivity to cynomolgus CD33 (cyCD33) was assessed by flow cytometry as depicted in FIG. 32. JNL cells transduced with a lentiviral vector expressing scFv's raised against hsCD33 were incubated with either recombinant Fc-tagged hsCD33 (red line) or cyCD33 (blue line) followed by incubation with an Fc-specific secondary antibody conjugated to phycoerythrin. While scFv clones CD33-1, -2, -3, -4, -5, -6, -7, -9, and CD33-UPenn were capable of binding hsCD33, we note that only scFv clone CD33-5 appeared to be cross-reactive to both hsCD33 and cyCD33 (FIG. 32).

T1 sequence (P20138 18-259 limits assumed): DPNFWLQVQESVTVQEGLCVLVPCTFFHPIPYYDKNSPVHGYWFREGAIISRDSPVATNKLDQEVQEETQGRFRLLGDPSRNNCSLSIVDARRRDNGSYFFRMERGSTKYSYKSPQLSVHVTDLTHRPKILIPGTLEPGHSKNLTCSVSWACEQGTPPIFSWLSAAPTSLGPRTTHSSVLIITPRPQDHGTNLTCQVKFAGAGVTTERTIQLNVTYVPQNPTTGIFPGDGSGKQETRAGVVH

B1: CD33-UPenn (scFv based on the sequence of Mylotarg; humanized My96) (scFv, not shown: small tags and cut ends)
chain: EIVLTQSPGSLAVSPGERVTMSCKSSQSVFFSSSQKNYLAWYQQIPGQSPRLLIYWASTRESGVPDRFTGSGSGTDFTLTISSVQPEDLAIYYCHQYLSSRTFGQGTKLEIKRGGGGSGGGGSSGGGSQVQLQQPGAEVVKPGASVKMSCKASGYTFTSYYIHWIKQTPGQGLEWVGVIYPGNDDISYNQKFQGKATLTADKSSTTAYMQLSSLTSEDSAVYYCAREVRLRYFDVWGQGTTVTVSS
notes: also called CAR33-UPenn
Q: Does B1 bind?
A: Result: binds
